The target of the test is Soluble CD28-Ig (extracellular domain of human CD28 fused to the Fc portion of human IgG1) (human), P10747. The test is described as follows: competitive FACS on transfected cells, biotin-sCD28-Ig with FITC-sCTLA-4-Ig; grade 0-2 of CD28/CTLA-4 ratio vs WT hB7-1.

B1: Round 2 CD28A12-5 (ligand)
chain: ITPKSVTKRVKETVMLSCDYNTSTEELTSLRIYWRKDSKMXLAILPGKVQVWPEYKNRTITDMNDNLRIVILALRLSDSGTYTCVIQKPDLKGAYKLEHLTSVRLMIRADFPVPTINDLGNPSPNIRRLICSTSGGFPRPHLYWLENGEELNATNTTVSQDPGTELYMISSELDFNVTNNHSIVCLIKYGELLVSQIFPWSKPKQEPPIDQLPFWVIIPVSGALVLTAVVLYCLACRHVARWKRTRRNEETVGTERLSPIYLGSAQSSG
modifications: not fully specified; X: residue not identified in the source; ends and bridges not checked; also: glycosylated membrane protein, sites not given here
For the molecule B1, the Binding Score was 1.

B2: Round 2 CD28A4-9 (ligand)
chain: ITPKSVTKRVKETVMLSCDYNTSTEKLTSLRIYWQKDSKMVLAILPGKVQVWPEYKNRTITDMNDNPRIVILALRLSDSGTYTCVIQKPVLKGAYKLEHLTSVRLMIRADFPVPTINDLGNPSPNIRRLICSTSGGFPRPHLYWLENGEELNATNTTVSQDPETKLYMISSELDFNVTNNHSIVCLIKYGELSVSQIFPWSKPKQEPPIDQLPFWVIIPVSGALVLTAVVLYCPACRHVARWKRTRRNEETVGTERLSPIYLGSAQSRAEVPSLSX
modifications: not fully specified; X: residue not identified in the source; ends and bridges not checked
Regarding B2, the Binding Score came out at 1.

Values taken from patent publication US20100261660A1.
